These results are taken from patent CN106117361A (UNIV SUN YAT SEN, dated 2016).

This experiment concerns the target T1, CD3-His蛋白(MP-5).
T1 construct: Immunogen and panning antigen; also called CD3蛋白
The experiment can be described thus: BLI (Octet RED96) off-rate screening, sdAb-SASA from expression medium captured on BSA-coated biosensor, CD3 at 100 nM in solution, 30°C, 1:1 Langmuir model.

B1: A30322 抗CD3单域抗体 (sdAb) (VHH)
VHH: EVQLVECGGGLVQAGGSLRLSCAASGRTFDTMGWFRQAPGKEREFVAAVRWSSGNTYYGNTVKGRFTISRDTATNTVYLEMNSLKHEDTAVYYCAARLAGRGAADHWGQGTQVTVSS
notes: Llama-derived sdAb; Tested as crude sdAb-SASA protein in E. coli expression medium / culture supernatant (FASEBA format), not purified; also called sdAb-SASA蛋白; not shown: SASA fusion partner from the pFASEBA vector (sdAb-SASA protein in expression medium)
For B1, the off-rate (koff) stood at 1.43e-05 s⁻¹.
